The test deals with T1, NKp80 on human primary T cells and NK cells (人PBMC中CD3+ T细胞和CD56+ NK细胞) (人 (human), UniProt Q9NZS2 1-231).
T1 construct: whole, on cells; also called 人原代T细胞和NK细胞
T1 sequence (looked up): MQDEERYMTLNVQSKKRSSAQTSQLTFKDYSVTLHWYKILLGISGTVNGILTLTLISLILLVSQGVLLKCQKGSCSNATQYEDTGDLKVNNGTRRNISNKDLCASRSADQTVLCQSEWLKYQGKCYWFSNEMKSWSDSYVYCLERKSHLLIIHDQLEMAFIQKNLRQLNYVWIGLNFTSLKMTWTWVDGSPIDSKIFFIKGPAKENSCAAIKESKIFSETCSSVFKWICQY
Put plainly: flow cytometry on human PBMC, CD3+ cells. For orientation: In flow cytometry, cells or beads pass a laser one at a time.

B1: 嵌合NKp80抗体(53G7) (antibody, human IgG1, V domains shown)
VH: EVQLQQSGPELVNPGASVKISCKTSGYTFTDYYMNWVKQSHGKSLEWIGDIHPNNGGTSYNQKFKGKATLTVDKSSSTAYMELRSLTSEDSAVYYCARDYGGTYTNWAQNYFDYWGQGTTLTVSS
VL: DIVQTQSPASLAVSLGQRATISCRASQSVSTPSYSYMHWYQQKPGQPPKLLIKYASNLESGVPARFSGSGSGTDFTLNIHPVEEEDTATYYCQHSWEIPWTFGGGTKLEIKA
notes: also called 53G7抗体; 抗人NKp80抗体53G7
B1: the binding result is “binds”.

The values are drawn from CN117586402A (HEFEI TIANGANG IMMUNOLOGY PHARMACEUTICAL CO LTD, dated 2024).
